From US20250101133A1 (CENTRE NATIONAL DE LA RECHERCHE SCIENTIFIQUE, published 2025)

T1: recombinant human NEDP1 protein (human, UniProt Q96LD8 1-212)
T1 construct: also called deNEDDylating enzyme NEDP1; NEDP1 enzyme
T1 sequence (looked up): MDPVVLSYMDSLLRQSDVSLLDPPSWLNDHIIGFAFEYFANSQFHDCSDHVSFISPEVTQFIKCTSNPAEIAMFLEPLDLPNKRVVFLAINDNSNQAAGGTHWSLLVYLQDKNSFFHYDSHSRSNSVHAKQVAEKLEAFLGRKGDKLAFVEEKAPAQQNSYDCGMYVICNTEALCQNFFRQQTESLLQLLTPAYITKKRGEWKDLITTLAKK

T2: endogenous NEDP1 in U2OS cell extracts (human, UniProt Q96LD8 1-212)
T2 construct: Untagged native protein, co-immunoprecipitated from cell lysate
T2 sequence (looked up): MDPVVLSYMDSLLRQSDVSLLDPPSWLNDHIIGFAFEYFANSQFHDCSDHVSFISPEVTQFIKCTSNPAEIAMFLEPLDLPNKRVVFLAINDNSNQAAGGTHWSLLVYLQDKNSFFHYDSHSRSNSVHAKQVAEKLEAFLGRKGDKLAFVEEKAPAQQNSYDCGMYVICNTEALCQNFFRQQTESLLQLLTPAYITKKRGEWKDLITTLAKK


Key:
[1] = molecular target: T1, recombinant human NEDP1 protein; assay: SPR and ELISA
Procedure: (§1) FIGS. 1A-1C: FIG. 1A Table showing the different Nanobodies isolated and their binding specificity towards the immunogen human NEDP1 and ULP-3, the C. elegans homologue of NEDP1 (−poor/no binding, + indicates binding affinity/specificity). FIG. 1B ELISA test, showing the binding of indicated Nanobodies (300 ng) against increasing amounts of coated recombinant human NEDP1. FIG. 1C Table showing the SPR (Surface Plasmon Resonance) analysis and binding affinities for indicated Nanobodies against human NEDP1.
(§2) Nbs affinities for NEDP1 were determined on a Biacore 2000 apparatus (Biacore AB, Uppsala, Sweden). Nanobodies (355 nM) were immobilized on anti-His6 antibody covalently immobilized on a carboxymethyl dextran sensorchip (CM5 Biacore AB) using the amine coupling method according to the manufacturer's instructions. The immobilization level was 500 resonance units (RU). Different concentrations of NEDP1 ranging from 0.75 to 200 nM in HEPES-buffered saline (0.01 M HEPES, pH 7.4, 0.15 M NaCl, 3 mM EDTA, 0.005% surfactant P20) were injected and exposed to the Nb. All sensorgrams were fitted by subtracting the signal from the reference flow cell and were treated using BIA evaluation version 3.2 software (Biacore AB).

[2] = molecular target: T2, endogenous NEDP1 in U2OS cell extracts; assay: anti-Flag immunoprecipitation from U2OS cell extracts, western blot with anti-NEDP1
Procedure: FIGS. 4A-4B: FIG. 4A Extracts from empty pcDNA3 vector (vect.) or stably expressing Nanobody 2/Nanobody 9-Flag (AbR2DP12/AbR2DP46) U2OS cells were used for anti-Flag immunoprecipitations. Total cell extracts (input) and eluates were used for western blot analysis with the indicated antibodies. FIG. 4B U2OS cells described above were lysed in 2×SDS buffer and extracts were analysed by western blotting with the indicated antibodies.
U2OS cells either with empty pcDNA3 vector or stably expressing Nb2/Nb9-Flag constructs were lysed in 50 mM Tris-HCl, pH 7.4, 100 mM KCl, 1% NP-40, 2 mM EDTA, protease inhibitors (complete EDTA-free, Roche) for 15 min on ice. After centrifugation at 13000 rpm for 15 min at 4° C. extracts were used for immunoprecipitations overnight at 4° C. with 20 μl of pre-washed Flag beads. Next day beads were washed 3× with 500 μl of lysis buffer, resuspended in 50 μl of 2×SDS Laemmli buffer and boiled for 5 min. Eluates were analysed by western blotting.

[3] = molecular target: T1, recombinant human NEDP1 protein; assay: SPR
Procedure: as §1, §2

Binder	binding result [1]	binding result [2]	other results
AbR2DP47, purified His6-tagged nanobody (VHH, Llama VHH, recloned into pHEN6 and purified from E. coli periplasm as a His6-tagged protein; also called Nb10; Nanobody 10; not shown: His6 tag from vector pHEN6) VHH: QVQLQESGGGLVEPGGSLRLSCAASGSISSINVMAWYRQAPGKQRESVAAISSFGITTYSETVKGRFTASRDNAKNTMYLQMNNLKPEDTAVYYCKGPNTDWGQGTQVTVSS	binds	–	–
AbR2DP12, purified His6-tagged nanobody (VHH, Llama VHH, recloned into pHEN6 and purified from E. coli periplasm as a His6-tagged protein; also called Nb2; Nanobody 2; not shown: His6 tag from vector pHEN6) VHH: QVQLQESGGGLVQAGGSLRLSCAASGSTSSFNVMAWYHQAPGKQRESVASITSGGITVYRDSVKGRFAISSDNAKNTVFLQMNSLKPEDTGVYYCGGVVDGRVYRGQGTQVTVSS	binds	–	–
Nb2-Flag (AbR2DP12 with Flag tag, stably expressed in U2OS cells) (VHH, Expressed inside U2OS cells from a pcDNA3 construct; also called Nanobody 2-Flag; AbR2DP12-Flag; not shown: Flag tag) VHH: QVQLQESGGGLVQAGGSLRLSCAASGSTSSFNVMAWYHQAPGKQRESVASITSGGITVYRDSVKGRFAISSDNAKNTVFLQMNSLKPEDTGVYYCGGVVDGRVYRGQGTQVTVSS	–	binds	–
AbR2DP35, purified His6-tagged nanobody (VHH, Llama VHH, purified as a His6-tagged protein; also called Nb7; Nanobody 7; not shown: His6 tag from vector pHEN6) VHH: QVQLQESGGGLVQPGGSLTLSCAASGVMFSTGVMGWYRQAPGKQREAVAAITSGGLTTYKDSVKGRFAISRDNTKSTGYLQMNRLRPEDTAVYYCNVRGYWGQGTQVTVSS	–	–	binding result [3]: binds
AbR2DP46, purified His6-tagged nanobody (VHH, Llama VHH, recloned into pHEN6 and purified from E. coli periplasm as a His6-tagged protein; also called Nb9; Nanobody 9; not shown: His6 tag from vector pHEN6) VHH: QVQLQESGGGLVQAGGSLRLSCAASGSPFSIGTMAWYRQAPGNQRASVAAITRGGATTYANSVKGRFTVSRDNAKNTVYLQMNSLKPEDTAAYYCSVWAGDRAYWGQGTQVTVSS	binds	–	–
Nb9-Flag (AbR2DP46 with Flag tag, stably expressed in U2OS cells) (VHH, Expressed inside U2OS cells from a pcDNA3 construct; also called Nanobody 9-Flag; AbR2DP46-Flag; not shown: Flag tag) VHH: QVQLQESGGGLVQAGGSLRLSCAASGSPFSIGTMAWYRQAPGNQRASVAAITRGGATTYANSVKGRFTVSRDNAKNTVYLQMNSLKPEDTAAYYCSVWAGDRAYWGQGTQVTVSS	–	binds	–
